{"source": "paper PMC10442425", "target": "recombinant SARS-CoV-2 envelope (E) protein, His-tagged (SARS-CoV-2) (UniProt P0DTC4)", "assay": "SPR; Biacore 8K, 25 °C, PBS-P buffer; His-tagged E protein captured on NTA chip; recombinant human CD36 injected at 400 nM to 12.5 nM, parallel kinetics; 1:1 binding model", "data": [{"substance": "recombinant human CD36 protein (from UniProt P16671 1-472) (receptor)", "values": [{"measurement": "Kd", "result": 0.055, "unit": "µM"}]}]}
